Experimental findings from PMC4173072, “A truncated form of the Carbon catabolite repressor 1 increases cellulase production in Trichoderma reesei” are described below.

The data set addresses CREI-96 (truncated Carbon catabolite repressor 1, Cre1-96) (Trichoderma reesei Rut-C30, UniProt G0RB08 1-96). The data set can be described thus: competition; 2000 nM protein; 50-, 100-, 200-fold competitor against N1; bands unchanged; GST elution buffer, 10 min at 22 °C; non-denaturing PAGE; salt and pH not stated. Conditions: protein: recombinant; tags: GST fusion (37 kDa), thrombin-cleaved before use; label: unlabelled; blunt.

CREI-96 (truncated Carbon catabolite repressor 1, Cre1-96), sequence (G0RB08 entry or part of it): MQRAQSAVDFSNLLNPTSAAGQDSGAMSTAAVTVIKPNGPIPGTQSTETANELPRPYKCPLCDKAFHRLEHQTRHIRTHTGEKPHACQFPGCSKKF

B1: mutated cold competitor RG221/RG222 (dsDNA)
DNA 1: CCAACGGCTTGTTGGGTTGCAGAAGCAACGGCAAAGCCCAACTTCCCAACGTTTGTTTCT
DNA 2: AGAAACAAACGTTGGGAAGTTGGGCTTTGCCGTTGCTTCTGCAACCCAACAAGCCGTTGG
Take B1: the binding result is given as “no binding”.
